These results are taken from publication PMC7226950.

Assay [1] concerns the target NY-ESO peptide on HLA-A*02:01 (human). The assay is described as follows: data from [41,42]; reprinted in Table 1.
Assay [2] deals with NY-ESO, mutated peptide ESO4D (4D, 9V) peptide on HLA-A*02:01 (human). The assay is described as follows: data from [41,42]; reprinted in Table 1.
The target in assay [3] is NY-ESO peptide on HLA-A*02:01 (human). The assay is described as follows: data from [41,42]; experimental binding affinity data reprinted in Table 1.

Turning to 1G4, in assay [1], the off-rate constant (koff) came to 0.82 s⁻¹, the on-rate constant (kon) turned out to be 57000 M⁻¹ s⁻¹ and the t1/2 was found to be 0.84 s. In assay [2], this substance displayed a Kd of 252 µM, a koff of 2.59 s⁻¹, an association rate constant (kon) of 10000 M⁻¹ s⁻¹ and a t1/2 of 0.27 s. This substance also registered a dissociation constant (Kd) in assay [3] of 14 µM.
